# According to patent publication US20200087373A1 (UNIVERSITY OF COPENHAGEN, published 2020):
# Values joined by “and” are separate entries in the source; they are usually repeats but may differ in a detail not shown here. Equal entries are not always repeated. Ends that are not written are not given here. * marks the point of attachment. C16 diacid = O=C(O)CCCCCCCCCCCCCCC(=O)*; C14 diacid = O=C(O)CCCCCCCCCCCCC(=O)*; Palmitoyl = CCCCCCCCCCCCCCCC(=O)*; Lauroyl = CCCCCCCCCCCC(=O)*
# T1: human GIP receptor (human, UniProt P48546 22-466)
# T1 construct: whole, on cells; also called hGIPR
# T1 sequence (looked up): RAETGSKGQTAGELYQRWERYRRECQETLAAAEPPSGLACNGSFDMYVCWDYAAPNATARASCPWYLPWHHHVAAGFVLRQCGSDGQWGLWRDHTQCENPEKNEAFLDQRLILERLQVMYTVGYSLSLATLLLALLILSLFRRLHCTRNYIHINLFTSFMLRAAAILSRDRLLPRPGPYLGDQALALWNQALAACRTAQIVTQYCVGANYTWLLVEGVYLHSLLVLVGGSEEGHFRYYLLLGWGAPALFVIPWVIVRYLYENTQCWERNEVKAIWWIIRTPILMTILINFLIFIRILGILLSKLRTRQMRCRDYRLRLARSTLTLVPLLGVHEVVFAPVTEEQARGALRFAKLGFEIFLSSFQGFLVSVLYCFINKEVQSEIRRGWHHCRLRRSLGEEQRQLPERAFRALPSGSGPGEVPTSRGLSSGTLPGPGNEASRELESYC
# Assays:
# [1] = biological target: T1, human GIP receptor; assay: 125I-hGIP competition binding, COS-7/hGIPR, 0.1% casein;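 further: nonspecific binding defined as radioligand binding measured on untransfected cells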
# Method: (§1) After incubation, the cells were washed twice in ice-cold binding buffer (+/−2% HSA) and lysed using 200 mM NaOH with 1% SDS for 30 min. Nonspecific binding was determined as the binding of radioactive ligand to untransfected cells.
# [2] = biological target: T1, human GIP receptor; assay: 125I-hGIP competition binding, COS-7/hGIPR, 2% HSA;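 further: nonspecific binding defined as radioligand binding to untransfected cells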
# Method: as §1
# [3] = biological target: T1, human GIP receptor; assay: IC50 with 2% HSA over IC50 with 0.1% casein, 125I-hGIP competition, COS-7/hGIPR
# Method: as §1
# [4] = biological target: T1, human GIP receptor; assay: 125I-hGIP competition binding, COS-7 cells expressing hGIPR;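 further: nonspecific binding taken as radioligand bound by untransfected cells, binding buffer with or without 2% HSA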
# Method: as §1
# [5] = biological target: T1, human GIP receptor; assay: cell-based or functional assay
Binder,IC50 [1] [nM],logIC50 [1] [log M],IC50 [2] [nM],logIC50 [2] [log M],Fold change HSA (2%)/Casein (0.1%) [3] [fold],IC50 [4] [nM],log IC50 [4],cAMP agonism [5] [nM],"cAMP agonism, EC50 (log) [5]","cAMP agonism, Emax [5]",cAMP antagonism [5] [nM],"cAMP antagonism, log [5] [log M]"
{C16 diacid}-TFISDYSIAMDKIHQQDFVNWLLAQK-NH2 (SMILES CC[C@H](C)[C@H](NC(=O)[C@H](CO)NC(=O)[C@H](Cc1ccc(O)cc1)NC(=O)[C@H](CC(=O)O)NC(=O)[C@H](CO)NC(=O)[C@@H](NC(=O)[C@H](Cc1ccccc1)NC(=O)[C@@H](NC(=O)CCCCCCCCCCCCCCC(=O)O)[C@@H](C)O)[C@@H](C)CC)C(=O)N[C@@H](C)C(=O)N[C@@H](CCSC)C(=O)N[C@@H](CC(=O)O)C(=O)N[C@@H](CCCCN)C(=O)N[C@H](C(=O)N[C@@H](Cc1c[nH]cn1)C(=O)N[C@@H](CCC(N)=O)C(=O)N[C@@H](CCC(N)=O)C(=O)N[C@@H](CC(=O)O)C(=O)N[C@@H](Cc1ccccc1)C(=O)N[C@H](C(=O)N[C@@H](CC(N)=O)C(=O)N[C@@H](Cc1c[nH]c2ccccc12)C(=O)N[C@@H](CC(C)C)C(=O)N[C@@H](CC(C)C)C(=O)N[C@@H](C)C(=O)N[C@@H](CCC(N)=O)C(=O)N[C@@H](CCCCN)C(N)=O)C(C)C)[C@@H](C)CC) [AT137 [hGIP(5-30)NH2-C16diacid/5]],286,-6.5,555,-6.3,1.9,286,-6.5 log M,,,,,
Lauroyl-TFISDYSIAMDKIHQQDFVNWLLAQK-NH2 (SMILES CCCCCCCCCCCC(=O)N[C@H](C(=O)N[C@@H](Cc1ccccc1)C(=O)N[C@H](C(=O)N[C@@H](CO)C(=O)N[C@@H](CC(=O)O)C(=O)N[C@@H](Cc1ccc(O)cc1)C(=O)N[C@@H](CO)C(=O)N[C@H](C(=O)N[C@@H](C)C(=O)N[C@@H](CCSC)C(=O)N[C@@H](CC(=O)O)C(=O)N[C@@H](CCCCN)C(=O)N[C@H](C(=O)N[C@@H](Cc1c[nH]cn1)C(=O)N[C@@H](CCC(N)=O)C(=O)N[C@@H](CCC(N)=O)C(=O)N[C@@H](CC(=O)O)C(=O)N[C@@H](Cc1ccccc1)C(=O)N[C@H](C(=O)N[C@@H](CC(N)=O)C(=O)N[C@@H](Cc1c[nH]c2ccccc12)C(=O)N[C@@H](CC(C)C)C(=O)N[C@@H](CC(C)C)C(=O)N[C@@H](C)C(=O)N[C@@H](CCC(N)=O)C(=O)N[C@@H](CCCCN)C(N)=O)C(C)C)[C@@H](C)CC)[C@@H](C)CC)[C@@H](C)CC)[C@@H](C)O) [AT118 [hGIP(5-30)NH2-C12/5]],115,-6.9,881,-6.1,7.7,102,-7 log M,,,,,
Palmitoyl-TFISDYSIAMDRIHQQDFVNWLLAQR-NH2 (SMILES CCCCCCCCCCCCCCCC(=O)N[C@H](C(=O)N[C@@H](Cc1ccccc1)C(=O)N[C@H](C(=O)N[C@@H](CO)C(=O)N[C@@H](CC(=O)O)C(=O)N[C@@H](Cc1ccc(O)cc1)C(=O)N[C@@H](CO)C(=O)N[C@H](C(=O)N[C@@H](C)C(=O)N[C@@H](CCSC)C(=O)N[C@@H](CC(=O)O)C(=O)N[C@@H](CCCNC(=N)N)C(=O)N[C@H](C(=O)N[C@@H](Cc1c[nH]cn1)C(=O)N[C@@H](CCC(N)=O)C(=O)N[C@@H](CCC(N)=O)C(=O)N[C@@H](CC(=O)O)C(=O)N[C@@H](Cc1ccccc1)C(=O)N[C@H](C(=O)N[C@@H](CC(N)=O)C(=O)N[C@@H](Cc1c[nH]c2ccccc12)C(=O)N[C@@H](CC(C)C)C(=O)N[C@@H](CC(C)C)C(=O)N[C@@H](C)C(=O)N[C@@H](CCC(N)=O)C(=O)N[C@@H](CCCNC(=N)N)C(N)=O)C(C)C)[C@@H](C)CC)[C@@H](C)CC)[C@@H](C)CC)[C@@H](C)O) [AT135 [hGIP(5-30)NH2[K16R; K30R]-C16/5]],5940,-5.2,977,-6,0.2,5940,-5.2 log M,,,,,
TFISDYSIAMDRIK(Palmitoyl)QQDFVNWLLAQR-NH2 (N-terminus assumed; SMILES CCCCCCCCCCCCCCCC(=O)NCCCC[C@H](NC(=O)[C@@H](NC(=O)[C@H](CCCNC(=N)N)NC(=O)[C@H](CC(=O)O)NC(=O)[C@H](CCSC)NC(=O)[C@H](C)NC(=O)[C@@H](NC(=O)[C@H](CO)NC(=O)[C@H](Cc1ccc(O)cc1)NC(=O)[C@H](CC(=O)O)NC(=O)[C@H](CO)NC(=O)[C@@H](NC(=O)[C@H](Cc1ccccc1)NC(=O)[C@@H](N)[C@@H](C)O)[C@@H](C)CC)[C@@H](C)CC)[C@@H](C)CC)C(=O)N[C@@H](CCC(N)=O)C(=O)N[C@@H](CCC(N)=O)C(=O)N[C@@H](CC(=O)O)C(=O)N[C@@H](Cc1ccccc1)C(=O)N[C@H](C(=O)N[C@@H](CC(N)=O)C(=O)N[C@@H](Cc1c[nH]c2ccccc12)C(=O)N[C@@H](CC(C)C)C(=O)N[C@@H](CC(C)C)C(=O)N[C@@H](C)C(=O)N[C@@H](CCC(N)=O)C(=O)N[C@@H](CCCNC(=N)N)C(N)=O)C(C)C) [AT134 [hGIP(5-30)NH2[K16R; H18K; K30R]-C16/18]],882,-6.1,4890,-5.3,5.5,882,-6.1 log M,,,,,
Palmitoyl-TFISDYSIAMDRIKQQDFVNWLLAQR-NH2 (SMILES CCCCCCCCCCCCCCCC(=O)N[C@H](C(=O)N[C@@H](Cc1ccccc1)C(=O)N[C@H](C(=O)N[C@@H](CO)C(=O)N[C@@H](CC(=O)O)C(=O)N[C@@H](Cc1ccc(O)cc1)C(=O)N[C@@H](CO)C(=O)N[C@H](C(=O)N[C@@H](C)C(=O)N[C@@H](CCSC)C(=O)N[C@@H](CC(=O)O)C(=O)N[C@@H](CCCNC(=N)N)C(=O)N[C@H](C(=O)N[C@@H](CCCCN)C(=O)N[C@@H](CCC(N)=O)C(=O)N[C@@H](CCC(N)=O)C(=O)N[C@@H](CC(=O)O)C(=O)N[C@@H](Cc1ccccc1)C(=O)N[C@H](C(=O)N[C@@H](CC(N)=O)C(=O)N[C@@H](Cc1c[nH]c2ccccc12)C(=O)N[C@@H](CC(C)C)C(=O)N[C@@H](CC(C)C)C(=O)N[C@@H](C)C(=O)N[C@@H](CCC(N)=O)C(=O)N[C@@H](CCCNC(=N)N)C(N)=O)C(C)C)[C@@H](C)CC)[C@@H](C)CC)[C@@H](C)CC)[C@@H](C)O) [AT133 [hGIP(5-30)NH2[K16R; H18K; K30R]-C16/5]],1720,-5.8,2200,-5.7,1.3,1720,-5.8 log M,,,,,
TFISDYSIAMDKIHQQDFVNWLLK(C16 diacid)QK-NH2 (N-terminus assumed; SMILES CC[C@H](C)[C@H](NC(=O)[C@H](CO)NC(=O)[C@H](Cc1ccc(O)cc1)NC(=O)[C@H](CC(=O)O)NC(=O)[C@H](CO)NC(=O)[C@@H](NC(=O)[C@H](Cc1ccccc1)NC(=O)[C@@H](N)[C@@H](C)O)[C@@H](C)CC)C(=O)N[C@@H](C)C(=O)N[C@@H](CCSC)C(=O)N[C@@H](CC(=O)O)C(=O)N[C@@H](CCCCN)C(=O)N[C@H](C(=O)N[C@@H](Cc1c[nH]cn1)C(=O)N[C@@H](CCC(N)=O)C(=O)N[C@@H](CCC(N)=O)C(=O)N[C@@H](CC(=O)O)C(=O)N[C@@H](Cc1ccccc1)C(=O)N[C@H](C(=O)N[C@@H](CC(N)=O)C(=O)N[C@@H](Cc1c[nH]c2ccccc12)C(=O)N[C@@H](CC(C)C)C(=O)N[C@@H](CC(C)C)C(=O)N[C@@H](CCCCNC(=O)CCCCCCCCCCCCCCC(=O)O)C(=O)N[C@@H](CCC(N)=O)C(=O)N[C@@H](CCCCN)C(N)=O)C(C)C)[C@@H](C)CC) [AT188 [hGIP(5-30)NH2[A28K]-C16diacid/28]],26300,-4.6,,,,183,-6.7 log M and -6.74 log M,152,-7 log M and -6.8 log M,10,152,-6.8
{C18 fatty acyl}-TFISDYSIAMDKIHQQDFVNWLLAQK-NH2 [AT127 [hGIP(5-30)NH2-C18/5]],1470,-5.8,,,,2040,-5.7 log M,,,,,
{C14 diacid}-TFISDYSIAMDKIHQQDFVNWLLAQK-NH2 (SMILES CC[C@H](C)[C@H](NC(=O)[C@H](CO)NC(=O)[C@H](Cc1ccc(O)cc1)NC(=O)[C@H](CC(=O)O)NC(=O)[C@H](CO)NC(=O)[C@@H](NC(=O)[C@H](Cc1ccccc1)NC(=O)[C@@H](NC(=O)CCCCCCCCCCCCC(=O)O)[C@@H](C)O)[C@@H](C)CC)C(=O)N[C@@H](C)C(=O)N[C@@H](CCSC)C(=O)N[C@@H](CC(=O)O)C(=O)N[C@@H](CCCCN)C(=O)N[C@H](C(=O)N[C@@H](Cc1c[nH]cn1)C(=O)N[C@@H](CCC(N)=O)C(=O)N[C@@H](CCC(N)=O)C(=O)N[C@@H](CC(=O)O)C(=O)N[C@@H](Cc1ccccc1)C(=O)N[C@H](C(=O)N[C@@H](CC(N)=O)C(=O)N[C@@H](Cc1c[nH]c2ccccc12)C(=O)N[C@@H](CC(C)C)C(=O)N[C@@H](CC(C)C)C(=O)N[C@@H](C)C(=O)N[C@@H](CCC(N)=O)C(=O)N[C@@H](CCCCN)C(N)=O)C(C)C)[C@@H](C)CC) [AT136 [hGIP(5-30)NH2-C14diacid/5]],45,-7.3,713,-6.1,15.7,45.4,-7.3 log M,,,,,
